Source: publication PMC5640506 (2017)

How the values were obtained:
[1] = target: K6-linked diUb (UniProt P0CG47 1-76, K6-linked: one Ub is ubiquitinated on the side chain of K6); experiment: MST
[2] = target: K48 diUb (Homo sapiens); experiment: MST
[3] = target: K29 diUb (Homo sapiens); experiment: MST
[4] = target: K63 diUb (Homo sapiens); experiment: MST
[5] = target: K33-linked diUb (UniProt P0CG47 1-76, K33-linked: one Ub is ubiquitinated on the side chain of K33); experiment: MST
[6] = target: T1, K11-linked diUb (UniProt P0CG47 1-76, K11-linked: one Ub is ubiquitinated on the side chain of K11); experiment: MST
[7] = target: T1, K11-linked diUb; experiment: ITC

| Binder | Kd [1] | Kd [2] | Kd [3] | Kd [4] | Kd [5] | Kd [6] | Kd [7] |
| --- | --- | --- | --- | --- | --- | --- | --- |
| dimerized K33/K11 affimer, fluorescently labelled (designed binder, Alexa488-maleimide or NT-647-maleimide on a single cysteine) ENSLEIEELARFAVDEHNKKENALLEFVRVVKAKEQIWEMDASKETMYYLTLEAKDGGKKKLYEAKVWVKMTHWIGAMNNFKELQEFKPVENSLEIEELARFAVDEHNKKENALLEFVRVVKAKEQIWEMDASKETMYYLTLEAKDGGKKKLYEAKVWVKMTHWIGAMNNFKELQEFKPV | 210 µM | 120 µM | 61 µM | 83 µM |  |  |  |
| dimerized K6 affimer, fluorescently labelled (designed binder, Alexa488-maleimide or NT-647-maleimide on a single cysteine) ENSLEIEELARFAVDEHNKKENALLEFVRVVKAKEQSWKDDELFDTMYYLTLEAKDGGKKKLYEAKVWVKASGIVMYQMNFKELQEFKPVENSLEIEELARFAVDEHNKKENALLEFVRVVKAKEQSWKDDELFDTMYYLTLEAKDGGKKKLYEAKVWVKASGIVMYQMNFKELQEFKPV |  | 82 µM | 55 µM | 130 µM | 120 µM | 49 µM |  |
| K33 affimer (designed binder) MSAATGVRAVPGNENSLEIEELARFAVDEHNKKENALLEFVRVVKAKEQIWEMDASKETMYYLTLEAKDGGKKKLYEAKVWVKMTHWIGAMNNFKELQEFKPVGDAAAAHHHHHHG |  |  |  |  |  |  | 0.007 µM |
